# Results published in patent publication US20240218054A1 (MABLOC, published 2024).
# Positions count from the first letter of the chain named.
# B1: ADI-49137 (antibody, V domains shown)
# VH: EVQLVESGGGLVQPGGSLRLSCAASGFIFSDHYMAWVRQAPGKGLEWVGHVGNKANTYTTEYAASVKGRFTISRDDSKKSLYLQMNRLKSEDTAVYYCARVFSYYLDYWGQGTPVTVSS
# VL: EIVLTQSPGTLALSPGERATLSCRASQSVSSYLAWYQQKPGQAPRLLIYDSSNRATGIPARFSGSGSGTDFTLTISSLEPEDFAVYYCQQPGNWPPAFTFGGGTKLEIK
# notes: full-length IgG; also called Antibody Number 126
# B2: ADI-50197 (antibody, V domains shown)
# VH: EVQLVESGGGVVQPGRSLRLSCAASGFTFSSYGMHWVRQAPGKGPEWVAVISEDGNKDHYVDSVKGRFSIYRDNSKSTVFLRMTSLRAEDTAVYYCAKDLTPYFYDSGAFDHWGQGTLVTVSS
# VL: QSVLTQPPSVSGAPGQRVTISCTGNSSNIGAGYEVHWYQQLPGTAPKLLIYGNNNRPSGVPDRFSGSKSGASGSLAVTGLRAEDEADYYCHSYDSNMSGSVFGGGTKVTVL
# notes: full-length IgG; also called Antibody Number 120
# B3: ADI-46724 (antibody, V domains shown)
# VH: QVQLQESGPGLVEPSGTLSLTCVVTGDSISSRSWWSWVRQPPGKGLEWIGEIYHSGTTTYSPSLKSRVIISLDKSENHFSLKMTSVTAADTAVYYCARVIRDLRDYYDGSGYGPDAFDIWGQGTTVTVSS
# VL: QPVLTQPPSVSAAPGQKVTISCSGSSSNIGSNFVSWYQQFPGTAPKLLIYDDNKRPSGIPDRFSGSKSGTSATLGITGLQTGDEADYYCETWDSRLSVVFGGGTKLTVL
# notes: full-length IgG; also called Antibody Number 133
# B4: ADI-50218 (antibody, V domains shown)
# VH: QVQLVQSGAEVKKPGASVKVSCKASGYTFTSYDINWVRQATGQGLEWMGWMNPNSGNTGYAQKFQGRVTMTRNTSISTAYMELSSLRSEDTAVYYCARGLNTVTNSDYWGQGTLVTVSS
# VL: DIQLTQSPSSVSASVGDRVTITCRASQGISSWLAWYQQKPGKAPKLLIYAASSLQSGVPSRFSGSGSGTDFTLTISSLQPEDFATYYCQQANSFPWTFGQGTKVDIK
# notes: full-length IgG; also called Antibody Number 128
# B5: ADI-48950 (antibody, V domains shown)
# VH: EVQLVESGGGVVQPGRSLRLSCAVSGFTFSTSPLHWVRQAPGKGLEWVAVSSFVATDKYYADSVKGRFTVSRDNSKNTLYLQMNSLRPEDTAVYYCARGFGELPGFDIWGQGTMVTVSS
# VL: SYVLTQPPSASGSPGQSVTISCTGTSSDFGGYNYVSWYQQHPGKAPKLMVYEVAKRPSGVPDRFSGSKSGNTASLTVSGLQAEDEADYYCSSYAGSNNFVVFGGGTKLTVL
# notes: full-length IgG; also called Antibody Number 142
# B6: ADI-49032 (antibody, V domains shown)
# VH: EVQLVQSGGGLVQPGGSLRLSCVGSGLTLSSSAMSWVRQAPGKGLECVSGITGSGSDSSYAASVKGRFTISRDNSKNTVYLQMNSLRAEDTAVYYCAKDLTHRLGSIFGKLTFDAFDIWGPGTMVTVSS
# VL: DIRLTQSPSTLSASVGDRVTITCRASQSISGWLAWYQQKPGKAPKLLIYKASILESGVPSRFSGSQSGTEFTLTISSLQPDDFATYYCQQYNNFWTFGQGTKLEIK
# notes: full-length IgG; also called Antibody Number 119
# B7: ADI-42186 (antibody, V domains shown)
# VH: QVQLQQSGPGLVKPSQTLSLTCAISGDSVSTNSAAWNWIRQSPSRGLEWLGRTYYRSKWYNDYALSVKSRITIKPDTSKNQFSLQLNSVTPEDTAVYYCAREGAGYYDSSGYYPLSYDAFDIWGRGTMVTVSS
# VL: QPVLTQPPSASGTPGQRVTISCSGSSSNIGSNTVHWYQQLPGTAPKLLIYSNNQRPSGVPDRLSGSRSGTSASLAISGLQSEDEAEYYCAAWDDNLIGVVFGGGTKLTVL
# notes: full-length IgG; also called Antibody Number 130
# B8: ADI-42817 (antibody, V domains shown)
# VH: QVTLKESGPTLVKPTQTLTLTCTFSGFSLSTSGVGVGWTRQPPGKALEWLALIYWDDDKRYSPSLKSRLTITKDTSKNQVVLTMTKMDPVDTATYYCAHRHIAARLYRDDDVFDVWGQGTMVTVSS
# VL: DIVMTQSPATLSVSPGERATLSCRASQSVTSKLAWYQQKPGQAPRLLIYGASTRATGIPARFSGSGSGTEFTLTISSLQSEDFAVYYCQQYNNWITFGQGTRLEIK
# notes: full-length IgG
# B9: ADI-48969 (antibody, V domains shown)
# VH: QVTLKESGGALVKPAGSLTLSCAASGFTFGDYYMSWIRQAPGKGLEWISYISSSGSSIYYTDSVRGRFTISRDNARNSLYLQMNSLRVEDTAVYYCAREFSSRPFDLWGQGTLVTVSS
# VL: QSVLTQPRSVSGSPGQSVTISCTGTSSDVGAYNFVSWYQQYPGKAPKLMIYDVNKRPSGVPDRFSGSKSGNTASLTISGLQAEDEADYHCCSYAGTYTSNYVFGSGTKVTVL
# notes: full-length IgG; also called Antibody Number 12
# B10: ADI-48951 (antibody, V domains shown)
# VH: EVQLLESGPGLVKPSGTLSLTCAVSGASISSNNWWSWVRQSPGKGLEWIGEIFHSGTTNYNPSLKSRVTISVDKSKNQFSLKLNSVTAADTAVYYCARDVGVAAVITGSVRWGQGTLVTVSS
# VL: DIVLTQSPDSLAVSLGERAAINCKSSQSVFFSSDNKNYLAWYQQKPGQPPKLLIYWASTRESGVPDRFSGSGSGTDFTLTISSLQAEDVAVYYCQQFYTTPSTFGQGTKVEIK
# notes: full-length IgG; also called Antibody Number 138
# B11: ADI-42217 (antibody, V domains shown)
# VH: EVQLVESGGGVVQPGRSLRLSCADSGFTFSYSAIHWVRQAPGKGLEWVAVISYDGSNKYYADSVKGRFTISRDNSKNTLYLQMNSLRPEDTAVYYCARHSGGYSSKDKPTEYFQHWGQGTLVTVSS
# VL: QSVLTQPPSVSGAPGQRVTISCTGSSSDIGAGYDVHWYQQLPGTAPKLLIYGNTNRPSGVPDRFSGSKSGTSASLAITGLQAEDEADYYCQSYDSSLSGVVFGGGTKLTVL
# notes: full-length IgG
# B12: ADI-46739 (antibody, V domains shown)
# VH: EVQLVESGPGLVKPSGTLSLTCAVSGGSISSDNWWSWVRQAPGKGLEWIGEIYHTGSTSYNPSLKSRVTISLDKSKNHFSLKLNSLTAADTAVYYCAGKKWELLGFRFDPWGQGTLVTVSS
# VL: NFMLTQPPSVSAAPGQKVTISCSGSNSNIGNNFVSWYQQLPGTAPKLLIYDNNERPSGIPDRFSGSKSVTSATLGITGLQTGDEADYYCGTWDNSLGMVVFGGGTKLTVL
# notes: full-length IgG; also called Antibody Number 124
# B13: ADI-42226 (antibody, V domains shown)
# VH: EVQLLESGGGLVQPGGSLRLSCAASGFIFSDHYMDWVRQAPGKGLEWVGRIRNKPNSYTTDYAAYVKGRFSISRDDSKNSLFLQMNSLKTEDTAVYYCARVVNGLDVWGQGTTVTVSS
# VL: SYELTQPPSVSVSPGQTARITCSGDALPKQYAYWYQQKPGQAPVLVIYKDTERPSGIPERFSGSSSGTTVTLTISGVQAEDEADYYCQSADSSVADSSVVFGGGTKLTVL
# notes: full-length IgG
# B14: ADI-48900 (antibody, V domains shown)
# VH: EVQLQESGPGLVKPSGTLSLTCAVSGGSISSSDWWSWVRQPPGKGLEWIGEIYHSGSTSYNPSVKSRVSISVDKSKNQFSLQLSSVTAADTAIYYCARVNPPQYSSGWYSVYWGQGTLVTVSS
# VL: QSVVTQPPSVSAAPGQKVTISCSGSSSNIGNNYVSWYQQLSETAPKLLIYDNNKRPSGIPNRFSGSKSGTSATLGITGLQTGDEADYYCGTWDNSLGAVVFGGGTKVTVL
# notes: full-length IgG; also called Antibody Number 13
# B15: ADI-50539 (antibody, V domains shown)
# VH: EVQLVESGPGLVKPSGTLSLTCAVSGGSISSSNWWSWVRQPPGKGLEWIGEIYHSGSTNYNPSLKSRVTISVDKSKNQFSLKLSSVTAADTAVYYCARARWEDGNYYYGMDVWGQGTTVTVSS
# VL: B14 VL with S2P, V4L, S41P, E42G, N61D, N94S, G97S
# notes: full-length IgG; also called Antibody Number 134
# B16: ADI-42114 (antibody, V domains shown)
# VH: EVQLLESGGGLVKPGGSLRLSCAASGFTFSSYSMNWVRQAPGKGLEWVSSISSSSSYIYYADSVKGRFTISRDNAKNSLYLQMNSLRAEDTAVYYCARDSWGPFDYWGQGTLVTVSS
# VL: B14 VL with V4L, S41P, E42G, N61D, N94S, G97S, V99K, V107L
# notes: full-length IgG; also called Antibody Number 143
# B17: ADI-48894 (antibody, V domains shown)
# VH: EVQLVESGGGLVQPGGSLRLSCAVSGFTFSDHYMDWVRQAPGKGLEWVGRSRNKVNSYITEYAASVKGRFSISRDDSKNSLYLQMNSLKIEDTAVYYCARVFGGPTDYWGQGTLVTVSS
# VL: EIVLTQSPSSLSASVGDRVTITCRASQGISNYLAWYQQKPGKAPKLLIYAASTLQSGVPSRFSGSGSGTDFILTISSLQPEDVATYYCQKYYSAPLITFGPGTKVEIK
# notes: full-length IgG
# B18: ADI-49037 (antibody, V domains shown)
# VH: EVQLVESGGGVVQPGRSLRLSCAASGFTLSSYVMHWVRQAPGKGLEWVAVISSDGTNKYYADSVKGRFTISRDSSKNTLYLQMNSLRPEDSAVYYCARGQPDYWGQGTLVTVSS
# VL: EIVLTQSPATLSLSPGERATLSCRASQSVSNYFAWYQQKPGQAPRLLIYGASNRATGVPARFSGSGSGTDFTLTISSLEPEDFAVYYCQQRSNWPYTFGQGTKVEIK
# notes: full-length IgG
# B19: ADI-48890 (antibody, V domains shown)
# VH: EVQLVESGGGLVQPGGSLRLSCAASGFTFSDHYMDWVRQAPGKGLEWVGRARNRANSYTTEYAASVKGRFAASRDDSKNSLYLQMNSLKTEDTAVYYCARVRGSYWDYWGQGTLVTVSS
# VL: QSALTQPPSASGSPGQSVTISCTGTSSDVGGYNYVSWYQQHPGKAPKLMIYEVSKRPSGVPDRFSGSKSGNTASLTVSGLQAEDEADYYCSSFAGSNNLYVFGTGTKVTVL
# notes: full-length IgG
# B20: ADI-46737 (antibody, V domains shown)
# VH: QVQLVQSGGGVVQPGRSLRLSCAASGFTFSSYAMHWVRQAPGKGLEWVAVISYDGSNKYYADSVKGRFTISRDNSKNTLYLQMNSLRAEDTAVYYCARDGAGDYIWGSYRHKGLHYYYGMDVWGQGTTVTVSS
# VL: DIQLTQSPSSLSASVGDRVTITCRASQGIRNDLGWYQQKPGKAPKRLIYAASSLQSGVPSRFSGSGSGTEFTLTISSLQPEDFATYYCLQHNSYPLTFGGGTKVEIK
# notes: full-length IgG; also called Antibody Number 140
# B21: ADI-42810 (antibody, V domains shown)
# VH: QVQLVESGAEEKKPGASVKVSCKASGYTFTSYAMHWVRQAPGQRLEWMGWINAGNGNTKYSQKFQGRVTITRDTSASTAYMELSSLRSEDTAVYYCARQWLGHFDYWGQGTLVTVSS
# VL: QSALTQPASVSGSPGQSITISCTGTSSDVGGYNYVSWYQQHPGKAPKLMIYEVSNRPSGVSNRFSGSKSGNTASLTISGLQAEDEADYYCSSYTSSSTYVFGTGTKVTVL
# notes: full-length IgG
# B22: ADI-42206 (antibody, V domains shown)
# VH: QVQLVQSGGGLVQPGGSLRLSCAASGFTFSDHYMDWVRQAPGKGLEWVGRIRNKVNSYTTEYAASVKGRFTISRDDSKNSLYLQMNSLKTEDTAVYYCGRDRGWLDIWGQGTMVTVSS
# VL: B21 VL with A3V, E52D, S54T, K68R, S95R, Y99R, T103G, V107L
# notes: full-length IgG; also called Antibody Number 132
# B23: ADI-50537 (antibody, V domains shown)
# VH: QVQLVQSGSELKKPGASVKVSCKASGYTFTSYAMNWVRQAPGQGLEWMGWINTNTGNPTYAQGFTGRFVFSLDTSVSTAYLQISSLKAEDTAVYYCARGYCSSTSCYGGLYWFDPWGQGTLVTVSS
# VL: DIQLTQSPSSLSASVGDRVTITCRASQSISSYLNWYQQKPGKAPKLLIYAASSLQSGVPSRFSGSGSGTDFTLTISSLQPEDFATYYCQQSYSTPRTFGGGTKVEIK
# notes: full-length IgG; also called Antibody Number 139
# Target: T1, recombinant YFV E protein (soluble E, sE; YFV Asibi strain) (Yellow fever virus, Asibi strain, UniProt Q6DV88 286-678)
# T1 construct: also called YFV E antigen; YFV E monomer
# Assay: BLI monovalent (IgG on tip)
# T1 sequence (Q6DV88 286-678): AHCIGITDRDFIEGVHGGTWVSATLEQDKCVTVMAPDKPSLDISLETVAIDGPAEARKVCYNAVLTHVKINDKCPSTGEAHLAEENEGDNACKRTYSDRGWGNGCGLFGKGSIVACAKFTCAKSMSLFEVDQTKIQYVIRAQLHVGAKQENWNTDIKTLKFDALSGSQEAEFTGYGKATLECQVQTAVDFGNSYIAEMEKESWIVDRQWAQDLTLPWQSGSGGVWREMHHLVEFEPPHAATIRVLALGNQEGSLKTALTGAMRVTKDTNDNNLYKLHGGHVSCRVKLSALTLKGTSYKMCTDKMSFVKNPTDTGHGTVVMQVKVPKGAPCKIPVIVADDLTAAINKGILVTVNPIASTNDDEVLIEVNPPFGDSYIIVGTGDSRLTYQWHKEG
row,Binder,Kd [nM]
1,B1,0.854
2,B2,> 100
3,B3,> 100
4,B4,> 100
5,B5,1.53
6,B6,0.486
7,B7,1.21
8,B8,4.15
9,B9,5.86
10,B10,2.67
11,B11,4
12,B12,> 100
13,B13,0.843
14,B14,26.2
15,B15,> 100
16,B16,> 100
17,B17,95.6
18,B18,3.53
19,B19,> 100
20,B20,> 100
21,B21,> 100
22,B22,1.73
23,B23,> 100
